Data published in US20070078092A1 (CUREGENICS, published 2007).
Square brackets hold non-standard residues; d marks the D form. Ends that are not written are not given here. * marks the point of attachment. Cholesteryloxycarbonyl = CC(C)CCC[C@@H](C)[C@H]1CC[C@H]2[C@@H]3CC=C4C[C@@H](OC(=O)*)CC[C@]4(C)[C@H]3CC[C@]12C; hLeu = CC(C)CC[C@H](N)C(=O)O; Orn = NCCC[C@H](N)C(=O)O; Nva = CCC[C@H](N)C(=O)O; Dap = NC[C@H](N)C(=O)O

B1: PTR 6316 (peptide)
peptide: RQIKIWFQNRRMKWKKRPR[Nva]Y[Dap][hLeu]K(Cholesteryloxycarbonyl)-NH2
modifications: N-terminus assumed
SMILES: CCC[C@H](NC(=O)[C@H](CCCNC(=N)N)NC(=O)[C@@H]1CCCN1C(=O)[C@H](CCCNC(=N)N)NC(=O)[C@H](CCCCN)NC(=O)[C@H](CCCCN)NC(=O)[C@H](Cc1c[nH]c2ccccc12)NC(=O)[C@H](CCCCN)NC(=O)[C@H](CCSC)NC(=O)[C@H](CCCNC(=N)N)NC(=O)[C@H](CCCNC(=N)N)NC(=O)[C@H](CC(N)=O)NC(=O)[C@H](CCC(N)=O)NC(=O)[C@H](Cc1ccccc1)NC(=O)[C@H](Cc1c[nH]c2ccccc12)NC(=O)[C@@H](NC(=O)[C@H](CCCCN)NC(=O)[C@@H](NC(=O)[C@H](CCC(N)=O)NC(=O)[C@@H](N)CCCNC(=N)N)[C@@H](C)CC)[C@@H](C)CC)C(=O)N[C@@H](Cc1ccc(O)cc1)C(=O)N[C@@H](CN)C(=O)N[C@@H](CCC(C)C)C(=O)N[C@@H](CCCCNC(=O)O[C@H]1CC[C@@]2(C)C(=CC[C@H]3[C@@H]4CC[C@H]([C@H](C)CCCC(C)C)[C@@]4(C)CC[C@@H]32)C1)C(N)=O
B2: PTR 6252 (peptide)
peptide: [dR][dR][dR][dR][dR][dR][dR][dR][dR]GRPR[Nva]YA[hLeu]-NH2
modifications: N-terminus assumed
SMILES: CCC[C@H](NC(=O)[C@H](CCCNC(=N)N)NC(=O)[C@@H]1CCCN1C(=O)[C@H](CCCNC(=N)N)NC(=O)CNC(=O)[C@@H](CCCNC(=N)N)NC(=O)[C@@H](CCCNC(=N)N)NC(=O)[C@@H](CCCNC(=N)N)NC(=O)[C@@H](CCCNC(=N)N)NC(=O)[C@@H](CCCNC(=N)N)NC(=O)[C@@H](CCCNC(=N)N)NC(=O)[C@@H](CCCNC(=N)N)NC(=O)[C@@H](CCCNC(=N)N)NC(=O)[C@H](N)CCCNC(=N)N)C(=O)N[C@@H](Cc1ccc(O)cc1)C(=O)N[C@@H](C)C(=O)N[C@@H](CCC(C)C)C(N)=O
B3: PTR 6154 (peptide)
peptide: RPR[Nva]Y[Dap][hLeu]-NH2
modifications: N-terminus assumed
SMILES: CCC[C@H](NC(=O)[C@H](CCCNC(=N)N)NC(=O)[C@@H]1CCCN1C(=O)[C@@H](N)CCCNC(=N)N)C(=O)N[C@@H](Cc1ccc(O)cc1)C(=O)N[C@@H](CN)C(=O)N[C@@H](CCC(C)C)C(N)=O
B4: PTR 6184 (peptide)
peptide: RPR[Nva]YA[hLeu]-NH2
modifications: N-terminus assumed
SMILES: CCC[C@H](NC(=O)[C@H](CCCNC(=N)N)NC(=O)[C@@H]1CCCN1C(=O)[C@@H](N)CCCNC(=N)N)C(=O)N[C@@H](Cc1ccc(O)cc1)C(=O)N[C@@H](C)C(=O)N[C@@H](CCC(C)C)C(N)=O
B5: PTR 6196 (peptide)
peptide: Cholesteryloxycarbonyl-RPR[Nva]YA[hLeu]-NH2
SMILES: CCC[C@H](NC(=O)[C@H](CCCNC(=N)N)NC(=O)[C@@H]1CCCN1C(=O)[C@H](CCCNC(=N)N)NC(=O)O[C@H]1CC[C@@]2(C)C(=CC[C@H]3[C@@H]4CC[C@H]([C@H](C)CCCC(C)C)[C@@]4(C)CC[C@@H]32)C1)C(=O)N[C@@H](Cc1ccc(O)cc1)C(=O)N[C@@H](C)C(=O)N[C@@H](CCC(C)C)C(N)=O
B6: PTR 6198 (peptide)
peptide: Cholesteryloxycarbonyl-GRPR[Nva]YA[hLeu]-NH2
SMILES: CCC[C@H](NC(=O)[C@H](CCCNC(=N)N)NC(=O)[C@@H]1CCCN1C(=O)[C@H](CCCNC(=N)N)NC(=O)CNC(=O)O[C@H]1CC[C@@]2(C)C(=CC[C@H]3[C@@H]4CC[C@H]([C@H](C)CCCC(C)C)[C@@]4(C)CC[C@@H]32)C1)C(=O)N[C@@H](Cc1ccc(O)cc1)C(=O)N[C@@H](C)C(=O)N[C@@H](CCC(C)C)C(N)=O

How the values were obtained:
Test in all cases: cell-based or functional assay
[1] = molecular target: protein kinase A (PKA)
[2] = molecular target: protein kinase B (PKB)
[3] = molecular target: protein kinase A (PKA); remark: listed apart in the source
[4] = molecular target: protein kinase B (PKB); remark: listed apart in the source
[5] = molecular target: protein kinase B (PKB); remark: listed apart in the source
[6] = molecular target: protein kinase B (PKB); remark: listed apart in the source
[7] = molecular target: protein kinase A (PKA); remark: listed apart in the source
[8] = molecular target: protein kinase B (PKB); remark: listed apart in the source

| Binder | IC50, kinase assay PKA [3] [nM] | IC50, kinase assay PKB [4] [nM] | IC50, PKA kinase inhibition [7] [nM] | IC50, PKB kinase inhibition [8] [nM] | further results |
| --- | --- | --- | --- | --- | --- |
| B1 |  |  |  |  | IC50, in vitro kinase assay PKA [1]: 5000 nM; IC50, in vitro kinase assay PKB [2]: 100 nM |
| Cholesteryloxycarbonyl-RPR[Orn]E(aminopropylmercaptoisoquinoline)SF-NH2 [PTR 6300] |  |  |  |  | IC50, in vitro kinase assay PKA [1]: 300 nM |
| Cholesteryloxycarbonyl-RPR[Orn]E(Aminoethylsulfonamidoisoquinoline)SF-NH2 [PTR 6260] | > 5000 | 1000 |  |  |  |
| {Vitamin E succinate}-RPR[Nva]Y[Dap][hLeu]-NH2 [PTR 6244] | 10000 | 3000 |  |  |  |
| B2 | 10000 | 800 |  |  | % Inhibition of PKB activity at 1 µM [5]: 65%; % Inhibition of PKB activity at 10 µM [5]: 93%; IC50, in vitro PKB inhibition [6]: 800 nM |
| B3 |  |  | > 50000 | 900 |  |
| B4 |  |  | > 50000 | 300 |  |
| RPR[Orn]E(NH‑(CH2)2‑NH‑SO2‑Isoquinoline)SF [PTR 6132] |  |  | 12 | 20 |  |
| B5 | 5000 | 500 |  |  |  |
| B6 | 5000 | 500 |  |  |  |
